Data published in the DeepSol protein solubility set.

Assay: soluble on expression in E. coli; label from the status in PepcDB or PDB records

| Sequence | soluble on expression in E. coli |
| --- | --- |
| MGSDKIHHHHHHLRLFGTKDEQLFMLFSESARVVVRGGDILQNVVNDYSDLDIKMAKLTAMEHEGDRIIQELIRRLNTSFILPFDREDAFQLAQKLSTTLDYITGIIDRMILYKTGRPNKRVKEMVNVLCEALFLQERALNLLQSLEHNKREILECCEEIRQLERKQDNHYRQGLALLFENEEEPIVIIKWREVYEHIEMAQDYVQDVAELISNICVKYS | not soluble |
| MRCVGVGNRDFVEGVSGGAWVDLVLEHGGCVTTMAQGKPTLDFELTKTTAKEVALLRTYCIEASISNITTATRCPTQGEPYLKEEQDQQYICRRDVVDRGWGNGCGLFGKGGVVTCAKFSCSGKITGNLVQIENLEYTVVVTVHNGDTHAVGNDTSNHGVTATITPRSPSVEVKLPDYGELTLDCEPRSGIDFNEMILMKMKKKTWLVHKQWFLDLPLPWTAGADTSEVHWNYKERMVTFKVPHAKRQDVTVLGSQEGAMHSALAGATEVDSGDGNHMFAGHLKCKVRMEKLRIKGMSYTMCPGKFSIDKEMAETQHGTTVVKVKYEGAGAPCKVPIEIRDVNKEKVVGRIISSTPLAENTNSATNIELEPPFGDSYIVIGVGNSALTLHWFRKGSSIGKSLEHHHHHHHH | not soluble |
| GPGSMTSASKKSTEENSEEVECTNSSRKRRMRQRERNIYISECHGIKELSSLVRRGFQQIMTARGLFISGCPDLVKLDDGTSGEEEGGEYYRQLEEVQVSRCPRLTDLSGLGKCKYLKVVDISDCRKLENIGELKSCRTLEKLALSRCTGLVDVNLRGFGKLLSFDIFKCANLTKICGLFGCPILETLTVEECGDVKEMEVRTIRGRVETLRIAGKRAMENVGFLCLFTNMKKLALCGCVGTVAEVLGEEAGGLPRLKWLELIGIRMERQMKDKPGNGVAATEEGNNAKRVLPMIVQNE | not soluble |
| MAHHHHHHMKSFSVTPRVWRRISEKNAEEGYGNDLRYLRLMIESGGCHGYAYKFLFEENSELVADEDVVVAESDVVQLPQPKSQELRTVAEGEGEGDVGESKAKGPPPRLVVDKHSVAKLLSAVVDFHSELKGSAFVVIGNELVDKSCACAMSFSMKKQQQKV | not soluble |
| ASVKDTYTDRLDDWNGIIAGNQYYDSKNDQMAKLNQELEGKVADSLSSISSQADRIYLWEKFSNYKTSANLTATYRKLEEMAKQVTNPSSRYYQDETVVRTVRDSMEWMHKHVYNSEKSIVGNWWDYEIGTPRAINNTLSLMKEYFSDEEIKKYTDVIEKFVPDPEHFRKTTDNPFKALGGNLVDMGRVKVIAGLLRKDDQEISSTIRSIEQVFKLVDQGEGFYQDGSYIDHTNVAYTGAFGNVLIDGLSQLLPVIQKTKNPIDKDKMQTMYHWIDKSFAPLLVNGELMDMSRGRSISRANSEGHVAAVEVLRGIHRIADMSEGETKQRLQSLVKTIVQSDSYYDVFKNLKTYKDISLMQSLLSDAGVASVPRTSYLSAFNKMDKTAMYNAEKGFGFGLSLFSSRTLNYEHMNKENKRGWYTSDGMFYLYNGDLSHYSDGYWPTVNPYKMPGTTETDAKRADSDTGKVLPSAFVGTSKLDDANATATMDFTNWNQTLTAHKSWFMLKDKIAFLGSNIQNTSTDTAATTIDQRKLESSNPYKVYVNDKEASLTEQEKDYPETQSVFLESSDSKKNIGYFFFKKSSISMSKALQKGAWKDINEGQSDKEVENEFLTISQAHKQNGDSYGYMLIPNVDRATFNQMIKELESSLIENNETLQSVYDAKQGVWGIVKYDDSVSTISNQFQVLKRGVYTIRKEGDEYKIAYYNPETQESAPDQEVFKKLEQHHHHHH | soluble |
| MARASGASDYRSGELSHQDERGAAHMVDITEKATTKRTAVAAGILRTSAQVVALISTGGLPKGDALATARVAGIMAAKRTSDLIPLCHQLALTGVDVDFTVGQLDIEITATVRSTDRTGVEMEALTAVSVAALTLYDMIKAVDPGALIDDIRVLHKEGGRRGTWTRR | soluble |
| MGSDKIHHHHHHGAGISTESGIPDYRSKDVGLYARIAHKPIYFQDYMRSNRCRQRYWSRNFLAWPRFGQAAPNINHYALSKWEASDRFQWLITQNVDGLHLKAGSKMVTELHGSALQVKCTTCDYIESRQTYQDRLDYANPGFKEEHVAPGELAPDGDIILPLGTEKGFQIPECPSCGGLMKTDVTFFGENVNMDKVNFCYEKVNECDGILSLGTSLAVLS | not soluble |
| IAAVGDGVCMLDRGFRIVYQNRAHERLLGEHGGERCSDAYGEDPDACRDCPMARAMDTGEVCTGSRRFISKGETRLLEITSSPVRNAAGEIVAGVEVVRDVT | not soluble |
| ATGPRYKVPMRRRREARTDYHQRLRLLKSGKPRLVARKSNKHVRAQLVTLGPNGDDTLASAHSSDLAEYGWEAPTGNMPSAYLTGLLAGLRAQEAGVEEAVLDIGLNSPTPGSKVFAIQEGAIDAGLDIPHNDDVLADWQRTRGAHIAEYDEQLEEPLYSGDFDAADLPEHFDELRETLLDGDIEL | soluble |
| MVCWSSHTASKQGNLMNQFYVHVRLFEDTAEQTKKFEELMLNFLYQKTVKESDDSCCRLIPEGYILKSTMNCQQILDQTFSIANSAGVDANIFVCKFEQSACLLPSASLVGNDFVHYDLTPKPIKLDS | not soluble |
| MGSDKIHHHHHHMRLITFDASYDPIAEESKTVRVYVFEPEKIERNLIFLHGIGNGNIPYLLWFGEKFREYNIKTWFLILPYHEKRAPENWSGGEPFYHSSPSFCVKRFDEAVQDVIDLVDVVKRDNDKPISLMGFSFGGMITTIALAREKRIEKGVICCSGGDWRWINWYSPYTERLRELYRKNGNEYGCRSEKDCIKNRRNAPEIIKSFNSIEDIRKKPPVGCYFYDPASFAPFVDQKVLFFWALFDHVIPYQSYACLHKLLKNKKTVYLPSGHKGSYFFRRYIAKRVVRFLIDDE | not soluble |
| MGDSTFLDRMLLQLRSTCKYYSGYPKDLGPSRVLHFTSEREFVQLLHQGYPVVVAFTIRSNYTQHLDRMLEEAAAEFYPNIKFMRVECPKYPGFCITRQKNEYPFIEIFHSPQHAGNEGKVQDPNITRYSVKVVPYNYDMSPYGFREFFKRQGVRTSDPK | not soluble |
| MGSDKIHHHHHHMGNEVYDAVVVGAGFAGLTAARELSRQGLAVHIVEARDRIGGRTWLDHRLGRDLEIGGTWVHWTQPHVWAELTRYGLETTPSPEPERAFWWADGCRHEGRPDELLGLIGQTNEEFVRDSRKYFPEPFRPMARDDFKSIDHVSVQARIREQFPAGAPRDILESFWALNFNGPLDNAALTQAFRWVALTNGDWAVNFEACATYKIVGGTAALAASMLADSGAGIQYGFKVEAVAEDADVVEIRSADGRTVRARTAIVTVPLHALNAVDFEPPLPAAKAEAASLGQVSKGAKVWFRLRGEHAPFVALGGADWPLNFFQVEYALDGDTIAVGFGPDAAKIEVEDPVAVQAQLARLVPGAEVVAVASHNWVDDPLSGETWPMHRTGFLSTHLPAMQASHGLVLFAGSDIANGWCGFIDGAIESGMGAALDAASLLAGGRP | not soluble |
| MKQLKSLDSDLEKAIGRISGGLYIITAQKGEVKGAMLASWVSQASFNPPGFTVAVAKDRAIESLMQVGDRFVLNILEEGNYQILMKHFLKRFPPGADRFAGVKTQTASNGSPILTDALAYLECEVASRMECSDHWIVYSQVTNGRVAKAEGLTAVHHRKVGNYYLEHHHHHH | not soluble |
| MGHHHHHHSHMRRAALRLCALGKGQLTPGRGLTQGPQNPKKQGIFHIHEVRDKLREIVGASTNWRDHVKAMEERKLLHSFLAKSQDGLPPRRMKDSYIEVLLPLGSEPELREKYLTVQNTVRFGRILEDLDSLGVLICYMHNKIHSAKMSPLSIVTALVDKIDMCKKSLSPEQDIKFSGHVSWVGKTSMEVKMQMFQLHGDEFCPVLDATFVMVARDSENKG | not soluble |
| MVREAKNLRARTKKISLHICRKHAPQSEDFRCVFLRQQVIDRDIEAMAKPYDFYIVWKLSYNHVFTIHPRHTILELPPVYPDTALVPFFIMRFSFFDHMISCEYIFHRKLFVCLHRKNKQKQKSNM | not soluble |
| GPGSMSDAFDIDEDMKMRIRVLNEIMYEDELDDGQQDVHLARGDIIDGTSDSDRDDNGGGGQRRRERRRGGGGADVCAPGPPRAETWAAVEGPEAAAASAASSLQQRAPRDEYHDKRYHEKRSKDRLARTKQIQSARNERVPAYANKKKTSKAKAGGSKGSLQRAVKRGKFTADA | soluble |
